Experiment in all cases: cell-based or functional assay
Assay [1] concerns the target GSK3α(h) (human, UniProt P49840 1-483).
Assay [2] concerns the target Hck(h) activated (human, UniProt P08631 251-518, limits assumed).
For assay [3], the target named is HIPK2(h) (human, UniProt Q9H2X6 165-564, limits assumed).
For assay [4], the target named is LOK(h) (human, UniProt O94804 1-348, limits assumed).
In assay [5] the target is Met(D1246H)(h) (human, UniProt P08581-2 974-1408, limits assumed).
For assay [6], the target named is AMPKα1(h) (human, UniProt Q13131 1-559).
For assay [7], the target named is MSK1(h) (human, UniProt O75582 1-802).
In assay [8] the target is MSK2(h) (human, UniProt O75676 1-772, limits assumed).
Assay [9] deals with T1, NEK11(h) (human, UniProt Q8NG66 1-645, limits assumed).
T1 sequence (looked up): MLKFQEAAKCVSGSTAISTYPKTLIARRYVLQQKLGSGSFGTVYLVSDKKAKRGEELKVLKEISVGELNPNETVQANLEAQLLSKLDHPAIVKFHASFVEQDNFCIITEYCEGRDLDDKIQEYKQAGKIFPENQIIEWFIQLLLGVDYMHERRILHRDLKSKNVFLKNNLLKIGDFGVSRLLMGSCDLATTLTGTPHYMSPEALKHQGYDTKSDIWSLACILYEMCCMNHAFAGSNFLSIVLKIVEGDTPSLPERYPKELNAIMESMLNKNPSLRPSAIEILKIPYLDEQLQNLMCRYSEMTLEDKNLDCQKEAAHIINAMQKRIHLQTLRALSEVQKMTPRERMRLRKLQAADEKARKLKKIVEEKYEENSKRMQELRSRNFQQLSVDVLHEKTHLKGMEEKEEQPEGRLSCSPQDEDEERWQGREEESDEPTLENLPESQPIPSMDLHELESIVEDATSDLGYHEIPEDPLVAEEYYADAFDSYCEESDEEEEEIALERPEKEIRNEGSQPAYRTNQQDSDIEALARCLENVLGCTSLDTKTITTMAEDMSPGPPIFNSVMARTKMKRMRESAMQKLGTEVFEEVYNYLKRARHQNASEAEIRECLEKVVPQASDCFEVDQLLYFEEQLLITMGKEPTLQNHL

Assay [10] addresses PAK4(h) (human, UniProt O96013 1-591, limits assumed).
The target in assay [11] is PDGFRα(D842V)(h) (human, UniProt P16234 550-1089, limits assumed).
In assay [12] the target is T2, PhKγ2(h) (human, UniProt P15735 1-406).
T2 sequence (looked up): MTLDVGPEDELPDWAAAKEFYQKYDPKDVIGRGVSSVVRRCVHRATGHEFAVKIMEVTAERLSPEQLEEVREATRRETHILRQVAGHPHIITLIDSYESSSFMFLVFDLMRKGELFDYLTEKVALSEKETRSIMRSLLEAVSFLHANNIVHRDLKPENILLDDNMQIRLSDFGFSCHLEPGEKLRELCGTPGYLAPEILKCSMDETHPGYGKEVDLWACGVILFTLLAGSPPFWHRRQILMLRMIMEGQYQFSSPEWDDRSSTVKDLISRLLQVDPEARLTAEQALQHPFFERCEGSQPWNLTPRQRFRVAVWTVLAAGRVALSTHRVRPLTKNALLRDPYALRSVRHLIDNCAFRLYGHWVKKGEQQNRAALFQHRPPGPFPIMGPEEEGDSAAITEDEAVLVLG

For assay [13], the target named is Pim-2(h) (human, UniProt Q9P1W9 1-311).
Assay [14] has as its target PKCθ(h) (human, UniProt Q04759 1-706).
Assay [15] has as its target T3, Tec(h)activated (human, UniProt P42680 1-631, limits assumed).
T3 sequence (looked up): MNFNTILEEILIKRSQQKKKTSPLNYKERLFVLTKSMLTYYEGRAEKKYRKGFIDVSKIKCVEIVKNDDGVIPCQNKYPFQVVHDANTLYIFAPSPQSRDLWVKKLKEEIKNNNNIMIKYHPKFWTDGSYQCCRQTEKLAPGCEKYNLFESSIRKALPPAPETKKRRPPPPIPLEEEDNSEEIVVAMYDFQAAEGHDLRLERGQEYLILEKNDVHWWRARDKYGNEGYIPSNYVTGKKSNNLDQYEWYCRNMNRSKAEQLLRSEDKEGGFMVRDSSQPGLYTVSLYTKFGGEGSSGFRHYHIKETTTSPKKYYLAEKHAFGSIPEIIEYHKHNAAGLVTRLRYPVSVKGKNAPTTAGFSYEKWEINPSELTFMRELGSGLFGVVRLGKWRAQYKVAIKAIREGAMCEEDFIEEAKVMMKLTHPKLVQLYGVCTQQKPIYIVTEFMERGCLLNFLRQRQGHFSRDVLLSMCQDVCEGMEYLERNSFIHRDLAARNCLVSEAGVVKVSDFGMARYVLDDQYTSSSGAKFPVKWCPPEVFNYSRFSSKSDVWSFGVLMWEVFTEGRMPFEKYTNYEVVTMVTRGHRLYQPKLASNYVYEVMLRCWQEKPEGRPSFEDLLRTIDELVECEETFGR

Assay [16] has as its target EGFR(L861Q)(h) (human, UniProt P00533 696-1210, limits assumed).
Assay [17] deals with FGFR1(h) (human, UniProt P11362 456-765, limits assumed).

Consider two molecules from patent US20140072613A1 (published 2014).

As to KAFAKLAARLYRKALARQLGVAA [MMI-0400], the “% activity, 100 µM” value was found to be 164% in assay [1]; 81% in assay [2]; 90% in [3]; 18% in assay [4]; 68% in assay [5]; 87% in assay [6]. Also, the “% activity, 100 µM” value in [7] is 28%; in assay [8], 52%; in [9], 33%; in [10], 89%; in assay [11], 118%; in [12], 38%. Also, the “% activity, 100 µM” value stood at 92% in [13]; 76% in assay [14]; 29% in [15]; 22% in assay [16]; 59% in [17].
Take FAKLAARLYRKALARQLGVAA [MMI-0300]: the “% activity, 100 µM” value in assay [1] was determined as 157%; in assay [2], 82%; in [3], 73%; in assay [4], 37%; in assay [5], 125%; in assay [6], 71%. For the same molecule, the “% activity, 100 µM” value in assay [7] was 32%; in assay [8] it was 56%; in [9], 53%; in assay [10], 94%; in assay [11] it was 114%; in assay [12], 46%. Further, the “% activity, 100 µM” value is 76% in assay [13]; 88% in assay [14]; 56% in assay [15]; 25% in assay [16]; 55% in [17].
